In the supplement of paper PMC10567573:

B1: VAMP4 (parent)
chain: FLRGPSGPRFGPRNDKIKHVQNQV
B2: HDAC6 (parent)
chain: QYMNEGELRVLADTYDSVYLHPNS

Variants of: B1
Assay: protein stability index of a GFP-peptide fusion (GPS, HEK-293T) (PSI 1-6); higher = more stable
Conditions: c terminus: a fixed tail appended
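Further: lentivirally expressed fusions sorted by FACS into six bins by GFP to DsRed ratio, PSI derived from sequencing read proportions per bin multiplied by bin number.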

Variant	protein stability index
FLRGPSGDRFGPRNDKIKHVQNQV	3.01
FLRGPSGMRFGPRNDKIKHVQNQV	2.53
FLRGPSGHRFGPRNDKIKHVQNQV	2.52
FLRGPSGCRFGPRNDKIKHVQNQV	2.44
FLRGPSGPRFGPRNDKAKHVQNQV	2.88
FLRGPSGPRFGPRNDKTKHVQNQV	3.16
FLRGPSGPRFGPRNDKFKHVQNQV	2.81
FLRGPSGPRFGPRNWKIKHVQNQV	1.39
FLRGPSGPRFGPRNCKIKHVQNQV	2.5
FLRGPSGPRFGPRNLKIKHVQNQV	2.17
FLRGPSGPRFGPRNGKIKHVQNQV	2.08
FLRGPSGPRFGYRNDKIKHVQNQV	2.75
FLRGPSGPRFGVRNDKIKHVQNQV	2.86
FLRGPSGPRFGPRNDKIKHVQDQV	3.48
FLRGPSGPRFGPRNDKIKHVQKQV	2.88
FLRGPSGPRFGPRNDKIKHVQRQV	2.25
FLRGPSGPRFGPRNDKIKHVQYQV	2.14
FLRGPSGPRFGPRNDKIKHVQTQV	3.02
FLRGPSGPRFGPRADKIKHVQNQV	2.35
FLRGPSGPRFGPRHDKIKHVQNQV	2.73
FLRGPSGPRFGPRSDKIKHVQNQV	2.67
FLRGPSGPRFGPRTDKIKHVQNQV	2.7
FLRGPSGPEFGPRNDKIKHVQNQV	3
FLRGPSGPNFGPRNDKIKHVQNQV	3.01

Variant	protein stability index
FLRGPSGPAFGPRNDKIKHVQNQV	2
FLRGPSGPSFGPRNDKIKHVQNQV	2.69
FLRGPSGPRFGPRNDKIKHVQNQC	2.22
FLRGPSGPRFGPRNDKIKHVQNQT	3.08
FLRGPSGPRFGPRNDKIKHVQNQS	2.9
FMRGPSGPRFGPRNDKIKHVQNQV	2.99
FARGPSGPRFGPRNDKIKHVQNQV	2.48
FLRGPSGPRFGPRNDKIKHHQNQV	3.3
FLRGPSGPRFGPRNDKIKHIQNQV	2.69
FLRGPSGPRFGPRNDKIKHQQNQV	2.24
FLRGPSGPRFGPRNDKIKHTQNQV	2.87
FLRGPSGPRFGPRNDKIAHVQNQV	3.24
FLRGPSGPRFGPRNDKIGHVQNQV	2.88
FLRGPSGPRFGPRNDKIMHVQNQV	2.27
FLRGPSGPRFGPRNDKIDHVQNQV	2.74
FLRPPSGPRFGPRNDKIKHVQNQV	3.12
FLRWPSGPRFGPRNDKIKHVQNQV	1.96
FLRGPSGPRFGPRNDKIKHVQNRV	2.87
FLRGPSGPRFGPRNDKIKHVQNLV	2.81
FLMGPSGPRFGPRNDKIKHVQNQV	2.04
FLRGPSQPRFGPRNDKIKHVQNQV	2.68
FLRGPSYPRFGPRNDKIKHVQNQV	1.96
FLRGPSGPRFGPRNDTIKHVQNQV	2.74
FLRGPSGPRFGPRNDMIKHVQNQV	2.42

Variant	protein stability index
FLRGPSGPRFGPRNDAIKHVQNQV	3
FLRGPSGPRFGPRNDKIKEVQNQV	2.7
FLRGPSGPRFSPRNDKIKHVQNQV	2.65
FLRGPVGPRFGPRNDKIKHVQNQV	2.12
FLRGPGGPRFGPRNDKIKHVQNQV	2.49
FLRGPWGPRFGPRNDKIKHVQNQV	1.29
FLRGPEGPRFGPRNDKIKHVQNQV	3.94
FLRGPKGPRFGPRNDKIKHVQNQV	2.65
KLRGPSGPRFGPRNDKIKHVQNQV	3.35
SLRGPSGPRFGPRNDKIKHVQNQV	3.71
FLRGESGPRFGPRNDKIKHVQNQV	3.15
FLRGLSGPRFGPRNDKIKHVQNQV	2.59
FLRGNSGPRFGPRNDKIKHVQNQV	2.94
FLRGRSGPRFGPRNDKIKHVQNQV	2.72
FLRGWSGPRFGPRNDKIKHVQNQV	1.55
FLRGPSGPRFGPWNDKIKHVQNQV	1.87
FLRGPSGPRFGPDNDKIKHVQNQV	3.39
FLRGPSGPRFGPVNDKIKHVQNQV	2.62
FLRGPSGPRFGPTNDKIKHVQNQV	2.8
FLRGPSGPRFGPINDKIKHVQNQV	2.43
FLRGPSGPRFGPGNDKIKHVQNQV	2.74
FLRGPSGPRKGPRNDKIKHVQNQV	2.57
FLRGPSGPRWGPRNDKIKHVQNQV	2.09

Variants of: B2
Assay: as above
Conditions: c terminus: a fixed tail appended

Variant	protein stability index
QYMNTGELRVLADTYDSVYLHPNS	2.02
QYMNGGELRVLADTYDSVYLHPNS	2.85
QYMNLGELRVLADTYDSVYLHPNS	2.12
QYMNAGELRVLADTYDSVYLHPNS	2.95
QYMNMGELRVLADTYDSVYLHPNS	1.8
QYMNFGELRVLADTYDSVYLHPNS	1.72
QYMNNGELRVLADTYDSVYLHPNS	3.15
QYMNPGELRVLADTYDSVYLHPNS	2.57
QYMNKGELRVLADTYDSVYLHPNS	1.9
QYMNSGELRVLADTYDSVYLHPNS	1.92
QYMNVGELRVLADTYDSVYLHPNS	1.21
QYMNHGELRVLADTYDSVYLHPNS	2.91
QYMNDGELRVLADTYDSVYLHPNS	1.88
QYMNCGELRVLADTYDSVYLHPNS	1.96
QYMNYGELRVLADTYDSVYLHPNS	2.03
PYMNEGELRVLADTYDSVYLHPNS	2.63
KYMNEGELRVLADTYDSVYLHPNS	1.92
MYMNEGELRVLADTYDSVYLHPNS	1.66
EYMNEGELRVLADTYDSVYLHPNS	1.93
CYMNEGELRVLADTYDSVYLHPNS	1.52
GYMNEGELRVLADTYDSVYLHPNS	1.89
SYMNEGELRVLADTYDSVYLHPNS	2.04
RYMNEGELRVLADTYDSVYLHPNS	1.43
FYMNEGELRVLADTYDSVYLHPNS	2.53

Variant	protein stability index
DYMNEGELRVLADTYDSVYLHPNS	3.16
WYMNEGELRVLADTYDSVYLHPNS	2.21
TYMNEGELRVLADTYDSVYLHPNS	1.84
IYMNEGELRVLADTYDSVYLHPNS	1.83
AYMNEGELRVLADTYDSVYLHPNS	1.69
YYMNEGELRVLADTYDSVYLHPNS	1.69
QTMNEGELRVLADTYDSVYLHPNS	2.9
QSMNEGELRVLADTYDSVYLHPNS	2.71
QHMNEGELRVLADTYDSVYLHPNS	2.13
QMMNEGELRVLADTYDSVYLHPNS	1.73
QGMNEGELRVLADTYDSVYLHPNS	3.27
QRMNEGELRVLADTYDSVYLHPNS	3.3
QKMNEGELRVLADTYDSVYLHPNS	3.46
QVMNEGELRVLADTYDSVYLHPNS	3.27
QFMNEGELRVLADTYDSVYLHPNS	2.2
QNMNEGELRVLADTYDSVYLHPNS	4.07
QPMNEGELRVLADTYDSVYLHPNS	4.32
QIMNEGELRVLADTYDSVYLHPNS	1.94
QAMNEGELRVLADTYDSVYLHPNS	1.43
QDMNEGELRVLADTYDSVYLHPNS	3.19
QLMNEGELRVLADTYDSVYLHPNS	2.68
QQMNEGELRVLADTYDSVYLHPNS	2.47
QWMNEGELRVLADTYDSVYLHPNS	2.11
QEMNEGELRVLADTYDSVYLHPNS	2.9

Variant	protein stability index
QYINEGELRVLADTYDSVYLHPNS	3.39
QYPNEGELRVLADTYDSVYLHPNS	4.02
QYSNEGELRVLADTYDSVYLHPNS	3.23
QYTNEGELRVLADTYDSVYLHPNS	2.99
QYYNEGELRVLADTYDSVYLHPNS	2.56
QYVNEGELRVLADTYDSVYLHPNS	3.46
QYENEGELRVLADTYDSVYLHPNS	3.88
QYNNEGELRVLADTYDSVYLHPNS	3.41
QYCNEGELRVLADTYDSVYLHPNS	3.07
QYHNEGELRVLADTYDSVYLHPNS	3.64
QYQNEGELRVLADTYDSVYLHPNS	3.73
QYKNEGELRVLADTYDSVYLHPNS	3.39
QYRNEGELRVLADTYDSVYLHPNS	3.65
QYDNEGELRVLADTYDSVYLHPNS	4.19
QYLNEGELRVLADTYDSVYLHPNS	2.38
QYANEGELRVLADTYDSVYLHPNS	3.17
QYFNEGELRVLADTYDSVYLHPNS	2.15
QYWNEGELRVLADTYDSVYLHPNS	2.29
QYMGEGELRVLADTYDSVYLHPNS	1.89
QYMMEGELRVLADTYDSVYLHPNS	2.76
QYMFEGELRVLADTYDSVYLHPNS	1.21
QYMTEGELRVLADTYDSVYLHPNS	2.16
QYMVEGELRVLADTYDSVYLHPNS	1.68
QYMDEGELRVLADTYDSVYLHPNS	1.61

Variant	protein stability index
QYMPEGELRVLADTYDSVYLHPNS	2.81
QYMREGELRVLADTYDSVYLHPNS	2.97
QYMEEGELRVLADTYDSVYLHPNS	3.02
QYMQEGELRVLADTYDSVYLHPNS	2.19
QYMSEGELRVLADTYDSVYLHPNS	2.05
QYMLEGELRVLADTYDSVYLHPNS	1.55
QYMHEGELRVLADTYDSVYLHPNS	2.23
QYMCEGELRVLADTYDSVYLHPNS	2.08
QYMYEGELRVLADTYDSVYLHPNS	1.93
QYMAEGELRVLADTYDSVYLHPNS	1.8
QYMKEGELRVLADTYDSVYLHPNS	2.2
QYMIEGELRVLADTYDSVYLHPNS	2.49
QYMNEYELRVLADTYDSVYLHPNS	2.5
QYMNEAELRVLADTYDSVYLHPNS	3.02
QYMNEPELRVLADTYDSVYLHPNS	3.01
QYMNENELRVLADTYDSVYLHPNS	2.18
QYMNEFELRVLADTYDSVYLHPNS	2.94
QYMNECELRVLADTYDSVYLHPNS	2.26
QYMNEDELRVLADTYDSVYLHPNS	1.89
QYMNEVELRVLADTYDSVYLHPNS	1.97
QYMNEEELRVLADTYDSVYLHPNS	2.19
QYMNEKELRVLADTYDSVYLHPNS	2.06
QYMNEQELRVLADTYDSVYLHPNS	1.91
QYMNELELRVLADTYDSVYLHPNS	2.51

Variant	protein stability index
QYMNETELRVLADTYDSVYLHPNS	1.85
QYMNEIELRVLADTYDSVYLHPNS	1.72
QYMNEHELRVLADTYDSVYLHPNS	1.63
QYMNEMELRVLADTYDSVYLHPNS	1.6
QYMNEWELRVLADTYDSVYLHPNS	1.88
QYMNESELRVLADTYDSVYLHPNS	1.98
QYMNERELRVLADTYDSVYLHPNS	2.03
QYMNEGILRVLADTYDSVYLHPNS	1.81
QYMNEGHLRVLADTYDSVYLHPNS	2.26
QYMNEGMLRVLADTYDSVYLHPNS	2.81
QYMNEGLLRVLADTYDSVYLHPNS	2.69
QYMNEGGLRVLADTYDSVYLHPNS	3.04
QYMNEGDLRVLADTYDSVYLHPNS	2.04
QYMNEGALRVLADTYDSVYLHPNS	1.96
QYMNEGKLRVLADTYDSVYLHPNS	1.76
QYMNEGRLRVLADTYDSVYLHPNS	1.55
QYMNEGPLRVLADTYDSVYLHPNS	2.64
QYMNEGQLRVLADTYDSVYLHPNS	1.66
QYMNEGFLRVLADTYDSVYLHPNS	2.46
QYMNEGSLRVLADTYDSVYLHPNS	2.04
QYMNEGNLRVLADTYDSVYLHPNS	1.72
